# Target: FMRP (fragile X mental retardation protein) (human, UniProt Q06787 1-632)
# Test: EMSA; FMRP 0.35-1.4 ug; 0.50 pmol RNA; FMRP EMSA: 30 min on ice, 6% nondenaturing PAGE; buffer, salt and pH not given (cited ref 18). Strand annealing assays (FMRP, I304N, dKHT, FXR1P) read RNA:RNA a
binder,measurement,value
UAGGUAGUUUCAUGUUGUUGG (ssRNA) [hsa-miR-196a-1 mature miRNA],binding result,binds

# Reference: paper PMC1698263
